Laboratory results as given in US20130072665A1 (Amgen, published 2013).
Residue numbers refer to the chain shown, from its start.

B1: 1A12 (antibody, V domains shown)
VH: EVQLVESGGGLVQPGGSLRLSCAASGLTFSNFWMSWVRQAPGKGLEWVANIKQDGSEKYYVDSVKGRFTISRDNAKNSLYLQMNSLRAEDTAVYSCTRESNWGFAFDIWGQGTMVTVSS
VL: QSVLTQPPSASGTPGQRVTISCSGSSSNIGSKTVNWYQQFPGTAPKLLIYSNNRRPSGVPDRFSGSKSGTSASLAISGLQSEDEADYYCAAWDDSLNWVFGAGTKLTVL
notes: also called 1A12.2
B2: 9C9 (antibody, V domains shown)
VH: B1 VH with A23V, A24V, L27F, N31S, F32Y, S95Y, T97A
VL: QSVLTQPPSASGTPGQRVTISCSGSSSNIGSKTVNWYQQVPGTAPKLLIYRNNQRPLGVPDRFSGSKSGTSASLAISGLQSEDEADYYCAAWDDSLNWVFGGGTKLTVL
B3: mouse PCSK9 (enzyme, UniProt Q80W65 35-694, looked up, not shown: small tags and cut ends)
chain: QDEDGDYEELMLALPSQEDGLADEAAHVATATFRRCSKEAWRLPGTYIVVLMEETQRLQIEQTAHRLQTRAARRGYVIKVLHIFYDLFPGFLVKMSSDLLGLALKLPHVEYIEEDSFVFAQSIPWNLERIIPAWHQTEEDRSPDGSSQVEVYLLDTSIQGAHREIEGRVTITDFNSVPEEDGTRFHRQASKCDSHGTHLAGVVSGRDAGVAKGTSLHSLRVLNCQGKGTVSGTLIGLEFIRKSQLIQPSGPLVVLLPLAGGYSRILNAACRHLARTGVVLVAAAGNFRDDACLYSPASAPEVITVGATNAQDQPVTLGTLGTNFGRCVDLFAPGKDIIGASSDCSTCFMSQSGTSQAAAHVAGIVARMLSREPTLTLAELRQRLIHFSTKDVINMAWFPEDQQVLTPNLVATLPPSTHETGGQLLCRTVWSAHSGPTRTATATARCAPEEELLSCSSFSRSGRRRGDWIEAIGGQQVCKALNAFGGEGVYAVARCCLVPRANCSIHNTPAARAGLETHVHCHQKDHVLTGCSFHWEVEDLSVRRQPALRSRRQPGQCVGHQAASVYASCCHAPGLECKIKEHGISGPSEQVTVACEAGWTLTGCNVLPGASLTLGAYSVDNLCVARVHDTARADRTSGEATVAAAICCRSRPSAKASWVQ
notes: biotinylated, tag not mentioned, in the hybridoma screen; also called mPCSK9-8xHIS; mPCSK9
B4: 16F12, anti-PCSK9 huIgG4 (antibody, V domains shown)
VH: QVHLVESGGGVVQPGRSLRLSCAASGFTFNSFGMHWVRQAPGKGLEWVALIWSDGSDEYYADSVKGRFTISRDNSKNTLYLQMNSLRAEDTAVYYCARAIAALYYYYGMDVWGQGTTVTVSS
VL: QSVLTQPPSVSAAPGQKVTISCSGSSSNIGNNFVSWYQQLPGTAPKLLIYDYNKRPSGIPDRFSGSKSGTSATLGITGLQTGDEADYYCGTWDSSLSAYVFGTGTRVTVLQ
notes: from hybridoma; also called 16F12 IgG4; 16F12.1
B5: 3C4 (antibody, V domains shown)
VH: QVQLQESGPGLVKPSQTLSLTCTVSGGSISSSDYYWSWIRQHPGKGLEWIGYIYYSGSTYYNPSLKSRITISVDTSKNLFSLKLSSVTAADTAVYYCARGGVTTYYYAMDVWGQGTTVTVSS
VL: DIQMTQSPSSLSASVGDRVTITCRASQRISNYLSWYLQKPGIAPKLLIYAASSLQSGVPSRFSGSGSGTDFTLTISSLQSEDFATYYCQQSYSTPLIFGGGTKVEIK
B6: 21B12 (antibody, V domains shown)
VH: QVQLVQSGAEVKKPGASVKVSCKASGYTLTSYGISWVRQAPGQGLEWMGWVSFYNGNTNYAQKLQGRGTMTTDPSTSTAYMELRSLRSDDTAVYYCARGYGMDVWGQGTTVTVSS
VL: QSALTQPASVSGSPGQSITISCTGTSSDVGGYNSVSWYQQHPGKAPKLMIYEVSNRPSGVSNRFSGSKSGNTASLTISGLQAEDEADYYCNSYTSTSMVFGGGTKLTVL
notes: lambda light chain; also called ABP 21B12; Ab 21B12
B7: 21B12, anti-PCSK9 huIgG4 (antibody, V domains shown)
VH: B6 VH
VL: QSALTQPASVSGSPGQSITISCTGTSSDVGGYNSVSWYQQHPGKAPKLMIYEVSNRPSGVSNRFSGSKSGNTASLTISGLQAEDEADYYCNSYTSTSMVFGGGTKLTVLQ
notes: from hybridoma; also called 21B12 IgG4; 21B12.1

Columns and labels:
[1] = biological target: T1, human PCSK9 (proprotein convertase subtilisin kexin type 9) (human, UniProt Q8NBP7 31-692); experiment: BIAcore solution equilibrium, pH 7.4
T1 construct: Used untagged, biotinylated, V5/His- or His-tagged depending on the assay; also called hPCSK9; huPCSK9

[2] = biological target: T2, PCSK9 V domain (450-692 of SEQ ID NO: 3) (human, UniProt Q8NBP7 450-692); experiment: domain binding ELISA (coated antibody captures the PCSK9 form; OD650)
T2 construct: also called v-domain PCSK9
T2 chain: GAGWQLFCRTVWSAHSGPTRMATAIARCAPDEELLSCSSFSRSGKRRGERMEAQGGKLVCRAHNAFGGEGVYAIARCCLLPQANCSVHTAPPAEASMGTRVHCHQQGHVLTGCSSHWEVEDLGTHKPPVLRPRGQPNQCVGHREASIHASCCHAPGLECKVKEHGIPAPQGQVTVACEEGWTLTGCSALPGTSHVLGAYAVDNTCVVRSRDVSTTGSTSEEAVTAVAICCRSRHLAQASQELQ

[3] = biological target: T3, PCSK9 ProCat (31-449 of SEQ ID NO: 3) (human, UniProt Q8NBP7 27-449); experiment: as above
T3 construct: From PCSK9 449TEV after rTEV cleavage: GAMG-PCSK9 (31-449)-ENLYFQ; Written as one chain; autocatalysis between 152 and 153 splits pro-domain and catalytic domain; also called procat PCSK9; PCSK9 31-449

[4] = biological target: T1, human PCSK9 (proprotein convertase …); experiment: BIAcore kinetic assay 1, His-tagged huPCSK9 captured, pH 6.0
[5] = biological target: T1, human PCSK9 (proprotein convertase …); experiment: BIAcore kinetic assay 1, His-tagged huPCSK9 captured, pH 5.5
[6] = biological target: T1, human PCSK9 (proprotein convertase …); experiment: BIAcore solution equilibrium, pH 5.5
[7] = biological target: T1, human PCSK9 (proprotein convertase …); experiment: BIAcore solution equilibrium, pH 6.0
[8] = biological target: T1, human PCSK9 (proprotein convertase …); experiment: BIAcore kinetic assay 1, His-tagged huPCSK9 captured, pH 7.4
[9] = biological target: T1, human PCSK9 (proprotein convertase …); experiment: BIAcore solution equilibrium, pH 7.4; pH 7.4
16F12, anti-PCSK9 huIgG4 = biological target: B4; experiment: KinExA solution equilibrium, % free 16F12 (100 pM) against [mPCSK9]
31H4, anti-PCSK9 huIgG4 = biological target: T4, 31H4, anti-PCSK9 huIgG4; experiment: KinExA solution equilibrium, % free 31H4.1 (100 pM) against [mPCSK9]
T4 construct: from hybridoma

mouse PCSK9 [10] = biological target: B3; experiment: KinExA solution equilibrium
mouse PCSK9 [11] = biological target: B3; experiment: BIAcore, antibody immobilised, pH 7.4
[12] = biological target: T2, PCSK9 V domain (450-692 of SEQ ID NO: 3); experiment: domain binding ELISA
[13] = biological target: T2, PCSK9 V domain (450-692 of SEQ ID NO: 3); experiment: native PAGE gel shift
mouse PCSK9 [14] = biological target: B3; experiment: BIAcore solution equilibrium

In the case of B1, the Kd [1] is reported as 0.56 nM, the binding result [2] is reported as “no binding” and the binding result [3] is reported as “binds”. For the same binder, the Kd [4] was 1.3 nM, the Kd [5] was 1.4 nM and the Kd [6] was 1.1 nM. For the same binder, the Kd [7] was 1 nM and the Kd [8] was 0.4 nM.

Binder B2 has a Kd [4] of 2.3 nM, a Kd [5] of 3.2 nM and a Kd [6] of 3.2 nM. For the same binder, the Kd [9] was 0.56 nM, the Kd [7] was 2.3 nM and the Kd [8] was 0.56 nM.

In the case of B3, the “IC50 (read off the curve)” value (16F12, anti-PCSK9 huIgG4) is reported as ~400 pM and the “IC50 (read off the curve)” value (31H4, anti-PCSK9 huIgG4) is reported as ~600 pM.

B4 was tested, and the Kd (mouse PCSK9 [10]) was 0.223 nM and the Kd (mouse PCSK9 [11]) was 6.4 nM.

B5: binds [12].

B6: no binding [13].

B7 was tested, and the Kd (mouse PCSK9 [14]) was 17 nM and the Kd (mouse PCSK9 [11]) was 460 nM.
